Measurements published in patent US20200270588A1, “GLUCOSYL TRANSFERASE POLYPEPTIDES AND METHODS OF USE” (Syngenta Participations AG, priority 2017, published 2020).
Positions count from the first letter of the chain named. In names and notes the source's numbering stands.

B1: A280V: bx9 SEQ ID NO:1 mutant (protein)
chain: MASSRTGAGAGGRVVVFPFPFQGHFNPVMRLARALHARGLAITVFHSGALDPADYPADYRFVPVTVEADPKLLASEDIAAIVTTLNASCDAPFRARLSALLAAEGRDSVRCVFTDVSWNAVLTASSDLGVPALGMMTASAASLRDYMAYRTLIDKGYLPVKEERKEDPVPELPPYLVKDLLRVDTSDLEEFAELLARTVTAARRASGLIFNTFPLIETDTLAEIHKALSVPVFAVAPLNKLVPTATASLHGVVQADRGCLQWLDTQQPGSVLYVSFGSMVAMDPHEFVELAWGLADSKRPFVWVVRPNLIRGFESGALPDGVEDEVRGRGIVVAWAPQEEVLAHPAVGGFLTHNGWNSTVEAISEGVPMVCCPRHGDQFGNMRYVCDVWKVGTELVGEQLERGQVKAAIDRLFGTKEGEEIKERMKEFKIAAAKGIGIGVDVDETASPRTDLTDLVDLIKSF
modifications: Zea mays
B2: A281S: bx9 SEQ ID NO:1 mutant (protein)
chain: B1 chain with V280A, A281S
modifications: Zea mays
B3: A281T: bx9 SEQ ID NO:1 mutant (protein)
chain: B1 chain with V280A, A281T
modifications: Zea mays
B4: A281V: bx9 SEQ ID NO:1 mutant (protein)
chain: B1 chain with V280A, A281V
modifications: Zea mays
B5: A281L: bx9 SEQ ID NO:1 mutant (protein)
chain: B1 chain with V280A, A281L
modifications: Zea mays
B6: A334K: bx9 SEQ ID NO:1 mutant (protein)
chain: B1 chain with V280A, A334K
modifications: Zea mays
B7: I363C: bx9 SEQ ID NO:1 mutant (protein)
chain: B1 chain with V280A, I363C
modifications: Zea mays
B8: I363A: bx9 SEQ ID NO:1 mutant (protein)
chain: B1 chain with V280A, I363A
modifications: Zea mays
B9: I363V: bx9 SEQ ID NO:1 mutant (protein)
chain: B1 chain with V280A, I363V
modifications: Zea mays
B10: I363S: bx9 SEQ ID NO:1 mutant (protein)
chain: B1 chain with V280A, I363S
modifications: Zea mays
B11: I363T: bx9 SEQ ID NO:1 mutant (protein)
chain: B1 chain with V280A, I363T
modifications: Zea mays
B12: I363F: bx9 SEQ ID NO:1 mutant (protein)
chain: B1 chain with V280A, I363F
modifications: Zea mays
B13: I363W: bx9 SEQ ID NO:1 mutant (protein)
chain: B1 chain with V280A, I363W
modifications: Zea mays
B14: V370T: bx9 SEQ ID NO:1 mutant (protein)
chain: B1 chain with V280A, V370T
modifications: Zea mays
B15: V370C: bx9 SEQ ID NO:1 mutant (protein)
chain: B1 chain with V280A, V370C
modifications: Zea mays
B16: V370L: bx9 SEQ ID NO:1 mutant (protein)
chain: B1 chain with V280A, V370L
modifications: Zea mays
B17: V370M: bx9 SEQ ID NO:1 mutant (protein)
chain: B1 chain with V280A, V370M
modifications: Zea mays
B18: V370A: bx9 SEQ ID NO:1 mutant (protein)
chain: B1 chain with V280A, V370A
modifications: Zea mays
B19: V370I: bx9 SEQ ID NO:1 mutant (protein)
chain: B1 chain with V280A, V370I
modifications: Zea mays
B20: C372I: bx9 SEQ ID NO:1 mutant (protein)
chain: B1 chain with V280A, C372I
modifications: Zea mays
B21: G376C: bx9 SEQ ID NO:1 mutant (protein)
chain: B1 chain with V280A, G376C
modifications: Zea mays
B22: F21Y: bx9 SEQ ID NO:1 mutant (protein)
chain: B1 chain with F21Y, V280A
modifications: Zea mays
B23: Q22H: bx9 SEQ ID NO:1 mutant (protein)
chain: B1 chain with Q22H, V280A
modifications: Zea mays
B24: Q22P: bx9 SEQ ID NO:1 mutant (protein)
chain: B1 chain with Q22P, V280A
modifications: Zea mays
B25: Q22M: bx9 SEQ ID NO:1 mutant (protein)
chain: B1 chain with Q22M, V280A
modifications: Zea mays
B26: E76M: bx9 SEQ ID NO:1 mutant (protein)
chain: B1 chain with E76M, V280A
modifications: Zea mays
B27: A79S: bx9 SEQ ID NO:1 mutant (protein)
chain: B1 chain with A79S, V280A
modifications: Zea mays
B28: A79N: bx9 SEQ ID NO:1 mutant (protein)
chain: B1 chain with A79N, V280A
modifications: Zea mays
B29: A79Q: bx9 SEQ ID NO:1 mutant (protein)
chain: B1 chain with A79Q, V280A
modifications: Zea mays
B30: A79G: bx9 SEQ ID NO:1 mutant (protein)
chain: B1 chain with A79G, V280A
modifications: Zea mays
B31: A79E: bx9 SEQ ID NO:1 mutant (protein)
chain: B1 chain with A79E, V280A
modifications: Zea mays
B32: V116L: bx9 SEQ ID NO:1 mutant (protein)
chain: B1 chain with V116L, V280A
modifications: Zea mays

Assay: UDP luminescence plate assay of E. coli extracts, saturation mutants of SEQ ID NO: 1, herbicide V
Assay type: biochemical, Zea mays
Conditions: improvement factor relative to w/t bx9 = 1.0, rounded to nearest 0.5; extract activity basis; compound V
Method: Competent BL21 (DE3) cells are transformed as in the foregoing examples and, following seed culturing, grown and autoinduced in plates in a 0.5-1 ml volume of autoinduction medium containing 50 ug/ml kanamycin. Plates are incubated at 37° C. and shaken at 900 rpm. Growth is monitored by taking 20 ul aliquots, diluting 10 fold into flat-bottomed 96 well microtiter plates and reading OD600n at t=0, 1, 2, 2½ and 3 hours if necessary. At a (corrected) OD600 nm˜0.2, plates are transferred to 20° C. and shaken overnight at 900 rpm in a Jencons VWR plate incubator. After ˜18-20 h the final OD600 readings are recorded and the plates centrifuged at 4600 rpm (bench top centrifuge) for 10 min at 4° C. The supernatant is discarded and the pellets then washed with 0.25 ml PBS by repeat centrifugation and removal of supernatant before freezing cell pellets at −80° C. To prepare extracts, plates are allowed to thaw for 30 min and then pellets are resuspended in 0.25 ml of a suitable lysis buffer (for example—50 mM Tris HCL buffer at pH 8.0, 5% glycerol containing 50 mM NaCl and lysonase) mixed, incubated at room temperature for a sufficient time for lysis to be near complete and then centrifuged to remove cell debris and 100 ul of supernatant extract removed to a 96 well V-shaped well plate and stored on ice prior to assay.
Optionally plate assays are stopped with brief heating to 95 C before returning to ice and addition of UDP-Glo detection reagent followed by incubation at lab temperature. […] In addition a UDP standard curve is run alongside each set of plate tests.
Making use of the ELISA assay it is then possible to calculate a specific activity (e.g. in Relative Luminescence Units (RLU)/min/ug bx protein) based upon the amount of each mutant bx9 polypeptide expressed in each well. […] The specific activity of the various test mutant extracts on the same plate are then expressed as a fraction of the specific activity of the w/t bx9 and thus the ‘improvement factor’ versus the w/t expressed as a decimal where, for example, ‘0.5’ means half the specific activity of the wild type and 2.0 means twice the specific activity of the wild type. However, as will be readily apparent to the skilled man, particularly in cases where the UDP assay signal was low (with poor signal to noise versus the background) and/or the ELISA measurement of bx protein also low such a method is prone to generate spurious high specific activity numbers and uncertain numbers.

Molecule	Preferred amino acid substitutions and (IF) based on RLU/min/ul	Most Preferred amino acid substitutions and (IF) based on RLU/min/ul
B1	V(1.0)	–
B2	S,T,V(1.0)	–
B3	S,T,V(1.0)	–
B4	S,T,V(1.0)	–
B5	L(1.5)	–
B6	–	K,R(2.0)
B7	C(1.0)	–
B8	–	A,V(2.0)
B9	–	A,V(2.0)
B10	S,T,F,W(1.5)	–
B11	S,T,F,W(1.5)	–
B12	S,T,F,W(1.5)	–
B13	S,T,F,W(1.5)	–
B14	T,C,L,M(1.0)	–
B15	T,C,L,M(1.0)	–
B16	T,C,L,M(1.0)	–

Molecule	Preferred amino acid substitutions and (IF) based on RLU/min/ul	Most Preferred amino acid substitutions and (IF) based on RLU/min/ul
B17	T,C,L,M(1.0)	–
B18	A,I(1.5)	–
B19	A,I(1.5)	–
B20	I(1.0)	–
B21	C,M(1.0)	–
B22	–	Y(2.0)
B23	H,P,M(1.0)	–
B24	H,P,M(1.0)	–
B25	H,P,M(1.0)	–
B26	M(1.0)	–
B27	1.0	–
B28	1.0	–
B29	1.0	–
B30	1.5	–
B31	1.5	–
B32	L,I(1.0)	–
